Source: the supplement of paper PMC9233669
This sample holds only a part of the variants without activity.

Columns and labels:
[1] = test system: biotinyl-Phe-oxazolone; test: self-aminoacylation, catalytic enhancement (BFO) (fold over background); higher = more active; k-Seq, kA / k0A0; sequences stand for … in GGGAAUGGAUCCACAUCUACGAAUUC…UUCACUGCAGACUUGACGAAGCUG
Method in brief: (§1)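 Mutagenized RNA pools with a 21-nt variable region (0.43 μM) reacted with each biotinyl-aminoacyl-oxazolone at 2–1250 μM. Reactions ran in 50 μL HEPES/NaCl/KCl/MgCl2/CaCl2 buffer with 5% acetonitrile, pH 6.9–7.0, for 90 minutes at room temperature. Streptavidin-captured RNA was quantified by triplicate qPCR and Illumina sequencing, and per-sequence fraction reacted was fit to a pseudo-first-order model with 1000 bootstraps. Catalytic enhancement is median kA divided by the uncatalyzed rate, the low-activity peak of a bimodal Gaussian fit.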

[2] = test system: biotinyl-Ile-oxazolone; test: self-aminoacylation, catalytic enhancement (BIO) (fold over background); higher = more active; k-Seq, kA / k0A0; sequences stand for … in GGGAAUGGAUCCACAUCUACGAAUUC…UUCACUGCAGACUUGACGAAGCUG
Method in brief: as §1

[3] = test system: biotinyl-Met-oxazolone; test: self-aminoacylation, catalytic enhancement (BMO) (fold over background); higher = more active; k-Seq, kA / k0A0; sequences stand for … in GGGAAUGGAUCCACAUCUACGAAUUC…UUCACUGCAGACUUGACGAAGCUG
Method in brief: as §1

[4] = test system: biotinyl-Val-oxazolone; test: self-aminoacylation, catalytic enhancement (BVO) (fold over background); higher = more active; k-Seq, kA / k0A0; sequences stand for … in GGGAAUGGAUCCACAUCUACGAAUUC…UUCACUGCAGACUUGACGAAGCUG
Method in brief: as §1

[5] = test system: biotinyl-Leu-oxazolone; test: self-aminoacylation, catalytic enhancement (BLO) (fold over background); higher = more active; k-Seq, kA / k0A0; sequences stand for … in GGGAAUGGAUCCACAUCUACGAAUUC…UUCACUGCAGACUUGACGAAGCUG
Method in brief: as §1

[6] = test system: biotinyl-Trp-oxazolone; test: self-aminoacylation, catalytic enhancement (BWO) (fold over background); higher = more active; k-Seq, kA / k0A0; sequences stand for … in GGGAAUGGAUCCACAUCUACGAAUUC…UUCACUGCAGACUUGACGAAGCUG
Method in brief: as §1

ACUACCCUGGUCAGCGAGUGA [Fam2.1 aminoacylation ribozyme variant]
self-aminoacylation [1]: 38.3
self-aminoacylation [2]: 4.51
self-aminoacylation [3]: 6.39
self-aminoacylation [4]: 4.6
self-aminoacylation [5]: 6.39
self-aminoacylation [6]: 6.58

ACUACCCUGGUCAUCGGGUGA [Fam2.1 aminoacylation ribozyme variant]
self-aminoacylation [1]: 293
self-aminoacylation [2]: 20.6
self-aminoacylation [3]: 48
self-aminoacylation [4]: 20.9
self-aminoacylation [5]: 50.1
self-aminoacylation [6]: 57.6

ACUACCCUGUUCAUCGAGUGA [Fam2.1 aminoacylation ribozyme variant]
self-aminoacylation [1]: 6.68
self-aminoacylation [2]: 2.28
self-aminoacylation [3]: 3.17
self-aminoacylation [4]: 2.33
self-aminoacylation [5]: 3.27
self-aminoacylation [6]: 5.04

ACUACUCUGGUCAUCGAGUGA [Fam2.1 aminoacylation ribozyme variant]
self-aminoacylation [1]: 36.2
self-aminoacylation [2]: 4.09
self-aminoacylation [3]: 5.17
self-aminoacylation [4]: 3.45
self-aminoacylation [5]: 8.12
self-aminoacylation [6]: 7.79

ACUCACCCAGGUCAUCGGGUG [Fam2.2 aminoacylation ribozyme variant]
self-aminoacylation [1]: 26.2
self-aminoacylation [2]: 4
self-aminoacylation [3]: 4.37
self-aminoacylation [4]: 4.51
self-aminoacylation [5]: 5.25
self-aminoacylation [6]: 4.81

ACUCACCUAGGUCAUCCGGUG [Fam2.2 aminoacylation ribozyme variant]
self-aminoacylation [1]: 39.5
self-aminoacylation [2]: 4.6
self-aminoacylation [3]: 6.22
self-aminoacylation [4]: 5.7
self-aminoacylation [5]: 7.63
self-aminoacylation [6]: 7.81

ACUCACCUAGGUCAUCGAGUG [Fam2.2 aminoacylation ribozyme variant]
self-aminoacylation [1]: 7.77
self-aminoacylation [2]: 2.85
self-aminoacylation [3]: 3.27
self-aminoacylation [4]: 2.86
self-aminoacylation [5]: 4.67
self-aminoacylation [6]: 2.72

ACUCACCUAGGUCAUCGGGUA [Fam2.2 aminoacylation ribozyme variant]
self-aminoacylation [1]: 157
self-aminoacylation [2]: 11.4
self-aminoacylation [3]: 19.9
self-aminoacylation [4]: 10.1
self-aminoacylation [5]: 27
self-aminoacylation [6]: 14.9

ACUCACCUAGGUCCUCGGGUG [Fam2.2 aminoacylation ribozyme variant]
self-aminoacylation [1]: 37.1
self-aminoacylation [2]: 5.2
self-aminoacylation [3]: 5.36
self-aminoacylation [4]: 4.46
self-aminoacylation [5]: 5.78
self-aminoacylation [6]: 8.03

ACUCACCUAGGUCGUCGGGUG [Fam2.2 aminoacylation ribozyme variant]
self-aminoacylation [1]: 6.16
self-aminoacylation [2]: 2.58
self-aminoacylation [3]: 2.56
self-aminoacylation [4]: 2.4
self-aminoacylation [5]: 2.25
self-aminoacylation [6]: 3.42

ACUCACCUAGGUGAUCGGGUG [Fam2.2 aminoacylation ribozyme variant]
self-aminoacylation [1]: 39.2
self-aminoacylation [2]: 5.05
self-aminoacylation [3]: 5.21
self-aminoacylation [4]: 4.87
self-aminoacylation [5]: 6.01
self-aminoacylation [6]: 8.44

ACUCACCUAUGUCAUCGGGUG [Fam2.2 aminoacylation ribozyme variant]
self-aminoacylation [1]: 33.4
self-aminoacylation [2]: 4.11
self-aminoacylation [3]: 5.4
self-aminoacylation [4]: 4.18
self-aminoacylation [5]: 6.52
self-aminoacylation [6]: 6.08

ACUCACCUUGGUCAUCGGGUG [Fam2.2 aminoacylation ribozyme variant]
self-aminoacylation [1]: 37.8
self-aminoacylation [2]: 4.9
self-aminoacylation [3]: 6.92
self-aminoacylation [4]: 5.78
self-aminoacylation [5]: 7.85
self-aminoacylation [6]: 9.04

ACUCCCCUAGGUCAUCGGGUG [Fam2.2 aminoacylation ribozyme variant]
self-aminoacylation [1]: 101
self-aminoacylation [2]: 8.61
self-aminoacylation [3]: 13.7
self-aminoacylation [4]: 10.3
self-aminoacylation [5]: 18.6
self-aminoacylation [6]: 13.8

ACUCUCCUAGGUCAUCGGGUG [Fam2.2 aminoacylation ribozyme variant]
self-aminoacylation [1]: 49.4
self-aminoacylation [2]: 5.49
self-aminoacylation [3]: 8.52
self-aminoacylation [4]: 5.61
self-aminoacylation [5]: 10.2
self-aminoacylation [6]: 8.31

ACUGACCUAGGUCAUCGGGUG [Fam2.2 aminoacylation ribozyme variant]
self-aminoacylation [1]: 32.9
self-aminoacylation [2]: 4.97
self-aminoacylation [3]: 6.84
self-aminoacylation [4]: 5
self-aminoacylation [5]: 7.25
self-aminoacylation [6]: 7.32

ACUUACCUAGGUCAUCGGGUG [Fam2.2 aminoacylation ribozyme variant]
self-aminoacylation [1]: 48.7
self-aminoacylation [2]: 7.28
self-aminoacylation [3]: 10.6
self-aminoacylation [4]: 5.61
self-aminoacylation [5]: 10.8
self-aminoacylation [6]: 10.1

AGCACCCUGGUCAUCGAGUGA [Fam2.1 aminoacylation ribozyme variant]
self-aminoacylation [1]: 6.9
self-aminoacylation [2]: 4.58
self-aminoacylation [3]: 8.03
self-aminoacylation [4]: 3.89
self-aminoacylation [5]: 6.84
self-aminoacylation [6]: 9.35

AGGACCCUGGUCAUCGAGUGA [Fam2.1 aminoacylation ribozyme variant]
self-aminoacylation [1]: 36.7
self-aminoacylation [2]: 4.59
self-aminoacylation [3]: 10.5
self-aminoacylation [4]: 5.05
self-aminoacylation [5]: 10.9
self-aminoacylation [6]: 10.7

AGGAUUGCUAAUAGUCGCAAG [Fam3.1 aminoacylation ribozyme variant]
self-aminoacylation [1]: 2.92
self-aminoacylation [2]: 1.62
self-aminoacylation [3]: 1.52
self-aminoacylation [4]: 1.88
self-aminoacylation [5]: 1.66
self-aminoacylation [6]: 2.52

AGGUUCGCUAAUAGUCGCAAG [Fam3.1 aminoacylation ribozyme variant]
self-aminoacylation [1]: 12.3
self-aminoacylation [2]: 2.82
self-aminoacylation [3]: 2.81
self-aminoacylation [4]: 2.34
self-aminoacylation [5]: 3.26
self-aminoacylation [6]: 4.12

AGGUUUGCUAAUAGCCGCAAG [Fam3.1 aminoacylation ribozyme variant]
self-aminoacylation [1]: 4.78
self-aminoacylation [2]: 1.2
self-aminoacylation [3]: 1.15
self-aminoacylation [4]: 0.935
self-aminoacylation [5]: 1.11
self-aminoacylation [6]: 2.25

AGGUUUGCUAAUAGUAGCAAG [Fam3.1 aminoacylation ribozyme variant]
self-aminoacylation [1]: 1.05
self-aminoacylation [2]: 1.49
self-aminoacylation [3]: 1.41
self-aminoacylation [4]: 1.22
self-aminoacylation [5]: 1.43
self-aminoacylation [6]: 2.18
